Experimental data from article PMC6146835.

Test system: HBG-4kb ZF (synthetic 6-zinc-finger DNA-binding domain) (synthetic construct)
Assay: EMSA
Settings: 10 mM Tris pH 7.5, 50 mM KCl, 5 mM MgCl2, 100 uM ZnCl2, 1 mM DTT, 0.05% Triton X-100, 2.5% glycerol, 100 ng herring sperm DNA per 20 ul, 15 nM Cy5-dsDNA …

Row | Sequence | Kd [nM]
1 | GAGAACTTAGTGGGGGAAAAAAAGCAGAGAGTATAT (double strand) [HBG-4kb off-target (2-nt mutant)] | 90
2 | GAGAACTTAGTGGGGGAAAGCAAGCAGAGAGTATAT (double strand) [HBG-4kb on-target] | 29.5
